{
  "source": "paper PMC6239281",
  "about": "“Same but different: Comparison of two system-specific molecular chaperones for the maturation of formate dehydrogenases” (PLoS ONE, 2018)",
  "molecules": {"B1": {"name": "Escherichia coli FdhD (natural protein, E. coli)", "chain": "MKKTQRKEIENVTNITGVRQIELWRRDDLQHPRLDEVAEEVPVALVYNGISHVVMMASPKDLEYFALGFSLSEGIIESPRDIFGMDVVPSCNGLEVQIELSSRRFMGLKERRRALAGRTGCGVCGVEQLNDIGKPVQPLPFTQTFDLNKLDDALRHLNDFQPVGQLTGCTHAAAWMLPSGELVGGHEDVGRHVALDKLLGRRSQEGESWQQGAVLVSSRASYEMVQKSAMCGVEILFAVSAATTLAVEVAERCNLTLVGFCKPGRATVYTHPQRLSN", "notes": "FdhD, FDH-specific chaperone of Escherichia coli; fdhD gene in pTrcHis (pNB10); His6-tagged FdhD has a molecular mass of 32.7 kDa; also called FdhD wild-type; FdhD WT; source: E. coli ΔfdhD strain (plasmid pNB10), purified (Ni-NTA)"}, "B2": {"name": "Escherichia coli FdhD-C124A (natural protein, E. coli)", "chain": "B1 chain with C124A", "notes": "FdhD of Escherichia coli with C124A; fdhD^C124A gene in pTrcHis (pNB12); Made from pNB10 by site-directed mutagenesis; also called His6-FdhD^C124A; source: E. coli ΔfdhD strain (plasmid pNB12), purified (Ni-NTA)"}, "B3": {"name": "Escherichia coli FdhD-C121A (natural protein, E. coli)", "chain": "B1 chain with C121A", "notes": "FdhD of Escherichia coli with C121A; fdhD^C121A gene in pTrcHis (pNB11); Made from pNB10 by site-directed mutagenesis; also called His6-FdhD^C121A; source: E. coli ΔfdhD strain (plasmid pNB11), purified (Ni-NTA)"}, "B4": {"name": "Escherichia coli FdhD-C121A/C124A (natural protein, E. coli)", "chain": "B1 chain with C121A, C124A", "notes": "FdhD of Escherichia coli with C121A and C124A; fdhD^C121A/C124A gene in pTrcHis (pNB13); Made from pNB10 by site-directed mutagenesis; also called FdhD-C121/C124A; double variant; source: E. coli ΔfdhD strain (plasmid pNB13), purified (Ni-NTA)"}},
  "key": {"[1]": {"target": "Rhodobacter capsulatus FdsC (R. capsulatus)", "test": "SEC; size exclusion chromatography of the Ni-NTA purified chaperones alone; data not shown"}, "[2]": {"target": "Rhodobacter capsulatus FdsC-C104A/C107A (R. capsulatus)", "test": "SEC; size exclusion chromatography of the Ni-NTA purified chaperones alone; data not shown"}, "[3]": {"target": "Rhodobacter capsulatus FdsC-C107A (R. capsulatus)", "test": "SEC; size exclusion chromatography of the Ni-NTA purified chaperones alone; data not shown"}, "[4]": {"target": "Rhodobacter capsulatus FdsC-C104A (R. capsulatus)", "test": "SEC; size exclusion chromatography of the Ni-NTA purified chaperones alone; data not shown"}, "[5]": {"target": "T1, Escherichia coli L-cysteine desulfurase IscS (E. coli, UniProt P0A6B7 1-404)", "T1 construct": "IscS, L-cysteine desulfurase of Escherichia coli; iscS gene cloned into NcoI/BamHI sites of pET15b (pSL209); also called E. coli IscS; source: recombinant (plasmid pSL209), expressed and purified as described previously [33, 46]", "T1 sequence (P0A6B7 whole entry)": "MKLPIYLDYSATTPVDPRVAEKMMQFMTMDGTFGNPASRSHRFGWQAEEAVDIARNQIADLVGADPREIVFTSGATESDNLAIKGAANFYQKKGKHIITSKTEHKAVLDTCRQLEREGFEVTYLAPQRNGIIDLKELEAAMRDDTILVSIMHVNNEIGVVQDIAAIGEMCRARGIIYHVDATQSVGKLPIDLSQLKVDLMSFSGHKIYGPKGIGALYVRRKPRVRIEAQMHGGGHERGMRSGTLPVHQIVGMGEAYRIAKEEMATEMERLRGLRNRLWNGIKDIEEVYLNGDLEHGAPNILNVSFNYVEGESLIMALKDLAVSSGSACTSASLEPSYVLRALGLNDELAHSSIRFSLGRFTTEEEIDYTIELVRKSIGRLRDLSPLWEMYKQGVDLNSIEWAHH", "test": "SEC; 20 μM IscS mixed with 40 μM FdhD or FdsC (or double cysteine variant), 30 min at room temperature, Superdex 200 (Increase), 100 mM potassium phosphate pH 8.0 (legend: with 100 mM NaCl, 10 mM β-mercaptoethanol), 280 nm; fractions on 15% SDS-PAGE", "conditions": "both partners purified"}, "[6]": {"target": "the molecule itself", "test": "SEC; size exclusion chromatography of the Ni-NTA purified chaperones alone; data not shown"}},
  "note": "Where a chain is given by its changes, count along the chain named. Names may count otherwise.",
  "data": [
    {"molecule": "Rhodobacter capsulatus FdsC (natural protein)", "values": [
      {"measurement": "stoichiometry N", "setting": "[1]", "result": 2}
    ]},
    {"molecule": "Rhodobacter capsulatus FdsC-C104A/C107A (natural protein)", "values": [
      {"measurement": "stoichiometry N", "setting": "[2]", "result": 2}
    ]},
    {"molecule": "Rhodobacter capsulatus FdsC-C107A (natural protein)", "values": [
      {"measurement": "stoichiometry N", "setting": "[3]", "result": 2}
    ]},
    {"molecule": "Rhodobacter capsulatus FdsC-C104A (natural protein)", "values": [
      {"measurement": "stoichiometry N", "setting": "[4]", "result": 2}
    ]},
    {"molecule": "B1", "values": [
      {"measurement": "binding result", "setting": "[5]", "result": "binds"},
      {"measurement": "stoichiometry N", "setting": "[6]", "result": 2}
    ]},
    {"molecule": "B2", "values": [
      {"measurement": "stoichiometry N", "setting": "[6]", "result": 2}
    ]},
    {"molecule": "B3", "values": [
      {"measurement": "stoichiometry N", "setting": "[6]", "result": 2}
    ]},
    {"molecule": "B4", "values": [
      {"measurement": "binding result", "setting": "[5]", "result": "binds"},
      {"measurement": "stoichiometry N", "setting": "[6]", "result": 2}
    ]}
  ]
}
